Source: publication PMC3107735

Target: bovine α-thrombin (bovine)
Experiment: SPR

Kd: 1.7 nM
Substance: TMEGF56, fragment of thrombomodulin with the fifth and sixth EGF-like domains (domain or fragment)
